Assays:
[1] = target: human prostate specific membrane antigen (PSMA) (human) (UniProt Q04609); assay: flow cytometry, 22Rv1 cells (low PSMA expression) stained with the PE conjugate; number printed over the white bar
[2] = target: human prostate specific membrane antigen (PSMA) (human) (UniProt Q04609); assay: flow cytometry, LNCaP cells (high PSMA expression) stained with the PE conjugate; number printed over the white bar

human prostate specific membrane antigen (PSMA) (human), sequence (Q04609 whole entry): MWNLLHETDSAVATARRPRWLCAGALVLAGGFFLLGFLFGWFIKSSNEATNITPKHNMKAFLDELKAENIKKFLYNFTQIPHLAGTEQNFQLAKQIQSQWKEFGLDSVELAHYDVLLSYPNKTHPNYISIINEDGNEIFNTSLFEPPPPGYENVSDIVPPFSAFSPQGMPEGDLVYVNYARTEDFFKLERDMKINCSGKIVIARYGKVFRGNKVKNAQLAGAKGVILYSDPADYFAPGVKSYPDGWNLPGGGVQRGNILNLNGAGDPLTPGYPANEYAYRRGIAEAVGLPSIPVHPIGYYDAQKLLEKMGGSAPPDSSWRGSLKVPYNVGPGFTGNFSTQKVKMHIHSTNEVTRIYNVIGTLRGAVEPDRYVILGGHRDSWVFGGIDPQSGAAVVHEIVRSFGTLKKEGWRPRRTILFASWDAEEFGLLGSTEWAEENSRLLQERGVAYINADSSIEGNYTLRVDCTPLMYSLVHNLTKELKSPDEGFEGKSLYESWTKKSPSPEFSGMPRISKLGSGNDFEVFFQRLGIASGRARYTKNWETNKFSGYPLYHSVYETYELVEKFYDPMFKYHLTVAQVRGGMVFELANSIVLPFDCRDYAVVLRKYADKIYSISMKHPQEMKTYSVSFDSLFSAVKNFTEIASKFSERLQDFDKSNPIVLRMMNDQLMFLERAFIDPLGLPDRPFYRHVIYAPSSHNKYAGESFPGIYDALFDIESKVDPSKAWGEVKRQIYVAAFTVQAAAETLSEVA

- MFI [1]: 13.7
- MFI [2]: 263
Substance: Anti PSMA antibody-PE conjugate from Biolegend (clone LNI-17 catalog #342504)
